According to US11453711B2, “Fusion proteins of GLP-1 and GDF15 and conjugates thereof” (BEIJING QL BIOPHARMACEUTICAL CO., LTD., priority 2019, dated 2022):

How the values were obtained:
[1] = Body weight and food intake in lean C57BL/6 mice, lysine conjugated compounds, 15 nmol/kg daily sc 14 days; type: in vivo; settings: for BW reduction: 15 nmol/kg daily sc 14 days, versus Semaglutide; for Body weight reduction at 15 nmol/kg (% reduction compared to vehicle)(Day11) / Cumulative food intake reduction at 15 nmol/kg (% reduction compared to vehicle)(Day11): C57 mice, 15 nmol/kg daily sc
Method: FIGS. 1A-1F show In vivo activities of fusion proteins. To evaluate the body weight and food intake effects of the fusion proteins, 10 week old male C57BL/6J mice were dosed everyday subcutaneously with 15 nmol/kg protein for 14 days. Food intake and body weight were measured daily. FIGS. 1A and 1B show body weight loss upon protein treatments from Day1 to Day15. […] FIGS. 1D and 1E show cumulative food intake with protein treatments from Day1 to Day15. […] Vehicle: 1.42 mg/mL disodium phosphate dihydrate, 14 mg/mL propylene glycol pH7.4. Data are expressed as mean values and standard error (SEM) for FIGS. 1A, 1B and 1C. n=5 for each treatment group. For FIGS. 1D, 1E and 1F, a pooled food intake was measured for each treatment group.
10 week old male C57BL/6 mice were injected everyday subcutaneously with 15 nmol/kg of the fusion protein conjugates (i.e., MLC002, MLC 004, MLC 005, MLC 006, MLC 007, MLC 008, and MLC 009) for 14 days. Food intake and body weight were measured daily and five animals were used for each treatment group. Body weight (BW) was monitored for each individual animal, but food intake for each group animals was measured together. Day 1 and Day 14 are first day and last day of molecule dosage. % BW loss=100*(BW on Day n-BW on Day 1)/(BW on Day 1). Cumulative food intake on Day n represents sum of food intake from Day 1 to Day n. Data are indicated as mean values and standard error (SEM) or pooled values. Statistical analysis was performed by One-way ANOVA. Body weight reduction on Day 11 is calculated by −1*(% BW loss−% BW loss of vehicle group); Cumulative food intake reduction is calculated by −100*(cumulative food intake-cumulative food intake of vehicle)/cumulative food intake of vehicle.

[2] = Pharmacokinetic measurement in mouse, single sc dose 30 nmol/kg, plasma ELISA; settings: for Cmax: read-out: Cmax (nmol/L), single sc dose 30 nmol/kg; for AUC0-24 h / Terminal t1/2 / Tmax: single sc dose 30 nmol/kg
[3] = Body weight and food intake in C57BL/6 mice, fusion protein conjugates, 30 nmol/kg daily 10 days; type: in vivo
How it was run: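 Male C57BL/6 mice received fusion protein conjugates by daily subcutaneous injection, with dosing running from Day 1 to Day 10. Body weight was recorded daily per animal and food intake daily per group. Body weight reduction was expressed relative to vehicle percent loss from Day 1. Cumulative food intake reduction was expressed as percent decrease versus vehicle.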

[4] = Efficacy in db/db mice: body weight, food intake, glucose, biomarkers, daily sc 14 days; type: in vivo
Method: (§1) FIGS. 4A-4D show In vivo efficacy in db/db mice. To evaluate the body weight, food intake and glucose effects of the fusion proteins, 8 week old male db/db mice were dosed everyday subcutaneously with 30 nmol/kg protein for 14 days. […] Compared to Vehicle control: ***, p<0.001. Data are expressed as mean values and standard error (SEM) for FIGS. 4A, 4B and 4D. n=5 for each treatment group. For FIG. 4C, a pooled food intake was measured for each treatment group.
FIGS. 5A-5F show In vivo efficacy in db/db mice. To evaluate the body weight, food intake and glucose effects of the fusion proteins, 8 week old male db/db mice were dosed everyday subcutaneously with different concentrations of proteins for 14 days. FIGS. 5A and 5B show body weight loss upon protein treatments from Day1 to Day15. […] Compared to Vehicle control: ***, p<0.001; **, p<0.01; *, p<0.05; ns, non-statistically significant; FIGS. 5D and 5E show cumulative food intake with protein treatments from Day1 to Day15. […] Compared to Vehicle control: ***, p<0.001**, p<0.01; *, p<0.05; ns, non-statistically significant. Data are expressed as mean values and standard error (SEM) for FIGS. 5A, 5B, 5C and 5F. n=5 for each treatment group. For FIGS. 5D and 5E, a pooled food intake was measured for each treatment group.
as §1, with “8A-8I” for “4A-4D”, “different concentrations of proteins” for “30 nmol/kg protein”, “FIGS. 8D-8F show body weight loss upon dose titrations of fusion protein conjugates. […]” for “Compared to Vehicle control: ***, p<0.001.”, “8A” for “4A, 4B”, “8C-I.” for “4D.”, “8B,” for “4C,”
Selected fusion protein conjugates are assessed in disease animal models (DIO mice, db/db mice, etc.) to determine body weight, food intake, glucose efficacy with dose responses. Some biomarkers are also measured, including fasting insulin, plasma triglyceride, cholesterol, liver triglyceride, and inflammatory biomarkers (ALT, AST and CRP).
8 week old male db/db mice were injected everyday subcutaneously with designated proteins for 14 days. Age matched lean mice were used as control. Food intake and body weight were measured daily and five animals were used for each treatment group. Fasting glucose were tested on designated days as shown in each figure. Body weight was monitored for each individual animal, but food intake for each group animals was measured together. Day 1 and Day 14 are first day and last day of molecule dosage. % BW loss=100*(BW on Day n-BW on Day 1)/(BW on Day 1). Cumulative food intake on Day n represents sum of food intake from Day 1 to Day n. Terminal blood was collected and EDTA-2K plasma was prepared and frozen at −80° C. for biomarker measurement. Liver was also collected and frozen in liquid nitrogen and store at −80° C. Data are indicated as mean values and standard error (SEM) or pooled values. Statistical analysis was performed by One-way ANOVA.

[5] = PK study in non-human primates, single sc dose 5 nmol/kg, plasma ELISA; settings: monkey, single sc dose 5 nmol/kg
[6] = 30 nmol/kg daily 14 days, FIG. 4, versus Semaglutide
[7] = 30 nmol/kg, FIG. 5A-E, versus Semaglutide, Tirzepatide and MLC014

Molecule	BW reduction [1]	Body weight reduction at 15 nmol/kg (% reduction compared to vehicle)(Day11) [1] [%]	Cumulative food intake reduction at 15 nmol/kg (% reduction compared to vehicle)(Day11) [1] [%]	Cmax [2] [nmol/L]	AUC0-24 h [2] [nmol·h/L]	Terminal t1/2 [2] [h]	Tmax [2] [h]	Body weight reduction at 30 nmol/kg (% reduction compared to vehicle)(Day11) [3] [%]	Cumulative food intake reduction at 30 nmol/kg (% reduction compared to vehicle)(Day11) [3] [%]	body weight loss [4, 6]	food intake suppression [4, 6]	glucose lowering effect ([4]; 30 nmol/kg daily 14 days, FIG. 4D)	body weight loss [4, 7]	food intake suppression [4, 7]	efficacy ([4]; FIG. 5 study)	AUC0-96 h [5] [nmol·h/L]	Terminal t1/2 [5] [h]	Tmax [5] [h]	Cmax ([5]; read-out: Cmax (nmol/L)) [nmol/L]
MLC007: fusion polypeptide SEQ ID NO: 254 conjugated with Moiety A at 1K of Linker (conjugate, Moiety A conjugated at linker K1) HGEGTFTSDVSSYLEEQAAREFIAWLVRGGGKQEPGQEPGQEPGQEPGQEPGQEPGQEPGQEPGAQPGAQPARQGDHCPLGPGRCCRLHTVRASLEDLGWADWVLSPREVQVTMCIGACPSQFRAANLHAQIKTSLHRLRPDTVPAPCCVPASYNPMVLIQRTDTGVSLQTYDDLLARDCHCI	statistically significantly enhanced BW loss efficacy than Semaglutide	11.3	21.8	10.4	63.8	4.7	0.5	–	–	–	–	–	–	–	–	–	–	–	–
MLC002: fusion polypeptide SEQ ID NO: 249 conjugated with Moiety A at 26K of GLP-1 (conjugate, Moiety A conjugated at K26) HGEGTFTSDVSSYLEEQAAKEFIAWLVRGGGGQEPGQEPGQEPGQEPGQEPGQEPGQEPGQEPGAQPGAQPARQGDHCPLGPGRCCRLHTVRASLEDLGWADWVLSPREVQVTMCIGACPSQFRAANLHAQIKTSLHRLRPDTVPAPCCVPASYNPMVLIQRTDTGVSLQTYDDLLARDCHCI	–	5.0	7.5	4.6	36.2	5.0	1.2	–	–	–	–	–	–	–	–	–	–	–	–
MLC009: fusion polypeptide SEQ ID NO: 256 conjugated with Moiety A at 15K of Linker (conjugate, Moiety A conjugated at linker K15) HGEGTFTSDVSSYLEEQAAREFIAWLVRGGGGQEPGQEPGQEPGQKPGQEPGQEPGQEPGQEPGAQPGAQPARQGDHCPLGPGRCCRLHTVRASLEDLGWADWVLSPREVQVTMCIGACPSQFRAANLHAQIKTSLHRLRPDTVPAPCCVPASYNPMVLIQRTDTGVSLQTYDDLLARDCHCI	statistically significantly enhanced BW loss efficacy than Semaglutide	14.6	23.9	17	157.8	4.2	3.3	–	–	–	–	–	–	–	–	–	–	–	–
MLC005: fusion polypeptide SEQ ID NO: 252 conjugated with Moiety A at 12K of Linker (conjugate, Moiety A conjugated at linker K12) HGEGTFTSDVSSYLEEQAAREFIAWLVRGGGGQEPGQEPGQEKGQEPGQEPGQEPGQEPGQEPGAQPGAQPARQGDHCPLGPGRCCRLHTVRASLEDLGWADWVLSPREVQVTMCIGACPSQFRAANLHAQIKTSLHRLRPDTVPAPCCVPASYNPMVLIQRTDTGVSLQTYDDLLARDCHCI	–	12.6	9.1	16.7	117.2	4.2	2.0	–	–	–	–	–	–	–	–	–	–	–	–
MLC006: fusion polypeptide SEQ ID NO: 253 conjugated with Moiety A at 36K of GLP-1 (conjugate, Moiety A conjugated at K36) HGEGTFTSDVSSYLEEQAAREFIAWLVRGKGGQEPGQEPGQEPGQEPGQEPGQEPGQEPGQEPGAQPGAQPARQGDHCPLGPGRCCRLHTVRASLEDLGWADWVLSPREVQVTMCIGACPSQFRAANLHAQIKTSLHRLRPDTVPAPCCVPASYNPMVLIQRTDTGVSLQTYDDLLARDCHCI	–	9.3	23.0	9.9	71.9	4.4	2.7	–	–	–	–	–	–	–	–	–	–	–	–
MLC008: fusion polypeptide SEQ ID NO: 255 conjugated with Moiety A at 6K of Linker (conjugate, Moiety A conjugated at linker K6) HGEGTFTSDVSSYLEEQAAREFIAWLVRGGGGQEPGKEPGQEPGQEPGQEPGQEPGQEPGQEPGAQPGAQPARQGDHCPLGPGRCCRLHTVRASLEDLGWADWVLSPREVQVTMCIGACPSQFRAANLHAQIKTSLHRLRPDTVPAPCCVPASYNPMVLIQRTDTGVSLQTYDDLLARDCHCI	–	10.9	19.5	20.8	82.2	4.2	0.7	–	–	–	–	–	–	–	–	–	–	–	–
MLC013: fusion polypeptide SEQ ID NO: 260 conjugated with Moiety A at 1K of Linker (conjugate, Moiety A conjugated at linker K1) HGEGTFTSDVSSYLEEQAAREFIAWLVRGGGKQEPGAQPGQEPGAQPGQEPGAQPGQEPGAQPGQEPGAQPGQEPGAQPGAQPGAQPGAQPGAQPGAQPGAQPGAQPGAQPARQGDHCPLGPGRCCRLHTVRASLEDLGWADWVLSPREVQVTMCIGACPSQFRAANLHAQIKTSLHRLRPDTVPAPCCVPASYNPMVLIQRTDTGVSLQTYDDLLARDCHCI	–	–	–	38.5	503.5	8.9	3.3	21.4	45.2	sustainable and much better effect	sustainable and much better effect	comparable glucose lowering effect to Semaglutide	sustainable and much better effect	sustainable and much better effect	better efficacy than Semaglutide and GDF15 derivative (MLC014)	1435	26	7	41.3
